Measured values as given in patent publication US20240327538A1 (AMUNIX PHARMACEUTICALS, published 2024).

Columns and labels:
cynomolgus monkey PSMA = target: T1, cynomolgus monkey PSMA (cynomolgus monkey, UniProt A0A2K5VNZ0 44-750); test: Octet
T1 construct: also called cyPSMA; Cyno PSMA

human PSMA = target: T2, human PSMA (human, UniProt Q04609 44-750, limits assumed); test: Octet
T2 construct: also called huPSMA

human CD3 epsilon = target: T3, human CD3 epsilon (human, UniProt P07766 23-126, limits assumed); test: Octet
T3 construct: also called huCD3e
T3 sequence (P07766 23-126 limits assumed): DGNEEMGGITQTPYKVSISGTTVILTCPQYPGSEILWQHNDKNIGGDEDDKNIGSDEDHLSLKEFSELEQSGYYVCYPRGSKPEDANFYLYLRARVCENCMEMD

[1] = target: T4, cynomolgus monkey CD3 epsilon (cynomolgus monkey, UniProt Q95LI5 22-117, limits assumed); test: Octet
T4 construct: also called cyCD3e
T4 sequence (looked up): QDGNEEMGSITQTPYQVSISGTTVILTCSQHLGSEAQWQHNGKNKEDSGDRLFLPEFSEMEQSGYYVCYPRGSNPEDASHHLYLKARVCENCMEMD

human PSMA-Fc [2] = target: T5, human PSMA-Fc (human, UniProt Q04609 44-750, limits assumed); test: Octet
T5 construct: also called Human PSMA-Fc fusions; not shown: Fc part
T5 sequence (Q04609 44-750 limits assumed): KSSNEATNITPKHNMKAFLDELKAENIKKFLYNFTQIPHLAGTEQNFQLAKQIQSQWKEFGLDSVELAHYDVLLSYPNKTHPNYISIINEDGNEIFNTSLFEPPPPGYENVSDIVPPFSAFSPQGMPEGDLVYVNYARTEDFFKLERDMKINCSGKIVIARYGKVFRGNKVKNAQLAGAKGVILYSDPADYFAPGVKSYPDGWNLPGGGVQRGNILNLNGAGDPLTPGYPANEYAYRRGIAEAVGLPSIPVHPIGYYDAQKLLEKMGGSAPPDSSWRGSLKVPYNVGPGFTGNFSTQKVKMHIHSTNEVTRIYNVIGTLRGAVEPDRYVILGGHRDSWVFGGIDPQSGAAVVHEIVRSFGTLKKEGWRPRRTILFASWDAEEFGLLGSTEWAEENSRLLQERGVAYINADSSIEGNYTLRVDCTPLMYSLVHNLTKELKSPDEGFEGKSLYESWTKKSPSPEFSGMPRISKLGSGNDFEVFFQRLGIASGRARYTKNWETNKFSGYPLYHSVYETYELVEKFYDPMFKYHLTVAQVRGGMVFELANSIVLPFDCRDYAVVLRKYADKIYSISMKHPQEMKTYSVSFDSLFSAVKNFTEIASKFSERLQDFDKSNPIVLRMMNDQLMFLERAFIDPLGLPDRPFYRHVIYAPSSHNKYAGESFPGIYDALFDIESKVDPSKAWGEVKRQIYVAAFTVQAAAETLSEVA

human PSMA-Fc [3] = target: T5, human PSMA-Fc; test: linker length / domain swap comparison
human PSMA-Fc [4] = target: T5, human PSMA-Fc; test: Octet, human PSMA-Fc
Experimental: Binding affinity of select PSMA PTE variants was tested by Octet.

[5] = target: T6, hPSMA antigen (with an added HHHHHH sequence) (human, UniProt Q04609 44-750); test: in vitro screening of VHH from immunized llamas
T6 construct: also called human PSMA (hPSMA)
T6 sequence (Q04609 other isoform, or with tags, fused parts or gaps limits assumed): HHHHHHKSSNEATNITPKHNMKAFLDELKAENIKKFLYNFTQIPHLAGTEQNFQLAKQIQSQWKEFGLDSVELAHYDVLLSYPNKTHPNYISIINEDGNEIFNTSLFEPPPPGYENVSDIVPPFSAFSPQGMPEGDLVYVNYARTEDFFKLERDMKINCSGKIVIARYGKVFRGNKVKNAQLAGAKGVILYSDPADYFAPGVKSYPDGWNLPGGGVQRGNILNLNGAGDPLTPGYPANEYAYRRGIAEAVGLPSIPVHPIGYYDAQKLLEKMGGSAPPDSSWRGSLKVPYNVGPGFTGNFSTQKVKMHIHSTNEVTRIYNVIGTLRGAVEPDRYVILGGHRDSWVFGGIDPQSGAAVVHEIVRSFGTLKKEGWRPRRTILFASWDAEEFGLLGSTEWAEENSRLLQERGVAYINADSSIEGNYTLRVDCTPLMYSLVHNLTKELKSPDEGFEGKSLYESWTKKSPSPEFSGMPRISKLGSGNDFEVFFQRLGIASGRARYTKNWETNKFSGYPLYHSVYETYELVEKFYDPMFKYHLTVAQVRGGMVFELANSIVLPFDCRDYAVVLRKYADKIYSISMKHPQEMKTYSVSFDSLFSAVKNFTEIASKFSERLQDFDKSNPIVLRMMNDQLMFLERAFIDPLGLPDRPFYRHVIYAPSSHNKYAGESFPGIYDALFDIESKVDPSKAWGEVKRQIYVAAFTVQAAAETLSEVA

T2 sequence (Q04609 44-750 limits assumed): as the sequence (Q04609 44-750 limits assumed) above

B1: uTCE from AC3445 (bispecific antibody)
chain: LTGPGTSESATPESQVQLVESGGGVVQPGRSLRLSCAASGRTFGIYVMGWVRQAPGKEREFVAAISWSGSNRKVSDSVKGRFTISRDNSKNTLYLQMNSLRAEDTAVYYCAASNRLYGRTWYDFNESDYWGQGTQVTVSSGGGGSGGGSELVVTQEPSLTVSPGGTVTLTCRSSNGAVTSSNYANWVQQKPGQAPRGLIGGTNKRAPGTPARFSGSLLGGKAALTLSGVQPEDEAVYYCALWYPNLWVFGGGTKLTVLSESATPESGPGTSPGATPESGPGTSESATPEVQLLESGGGIVQPGGSLKLSCAASGFTFNTYAMNWVRQAPGKGLEWVARIRSKYNNYATYYADSVKDRFTISRDDSKNTVYLQMNNLKTEDTAVYYCVRHENFGNSYVSWFAHWGQGTLVTVSSGTATPESGPGEAGRSANHTPAG
notes: unmasked TCE released from this paTCE; also called PSMA.119-CD3.23 uTCE
Cynomolgus monkey PSMA
  Kd: 47.5 nM
Human PSMA
  Kd: 6.2 nM
Human CD3 epsilon
  Kd: 34.8 nM
[1]
  Kd: 40 nM

B2: uTCE of AC3356 (bispecific antibody)
chain: LTGPATSGSETPGTQVQLVESGGGVVQPGRSLRLSCAASGRTFGIYVMGWVRQAPGKEREFVAAISWSGSNRLVSDSVKGRFTISRDNSKNTLYLQMNSLRAEDTAVYYCAASNRLYGRTWYDFNESDYWGQGTQVTVSSGGGGSGGGSEVQLLESGGGIVQPGGSLKLSCAASGFTFNTYAMNWVRQAPGKGLEWVARIRSKYNNYATYYADSVKDRFTISRDDSKNTVYLQMNNLKTEDTAVYYCVRHENFGNSYVSWFAHWGQGTLVTVSSGATPPETGAETESPGETTGGSAESEPPGEGELVVTQEPSLTVSPGGTVTLTCRSSNGAVTSSNYANWVQQKPGQAPRGLIGGTNKRAPGTPARFSGSLLGGKAALTLSGVQPEDEAVYYCALWYPNLWVFGGGTKLTVLGTAEAASASGEAGRSANHTPAG
notes: unmasked TCE of this paTCE; CD3.23 in VH-VL order; also called PSMA.5 (domain swap)
Human PSMA-Fc [2]
  Kd: 2.4 nM
Human PSMA-Fc [3]
  Kd: 2.4 nM
  koff: 0.00018 s⁻¹
  kon: 76000 M⁻¹ s⁻¹

B3: uTCE of AC3342 (bispecific antibody, V domains shown)
VH: QVQLVESGGGVVQPGRSLRLSCAASGRTFGIYVMGWVRQAPGKEREFVAAISWSGSNRLVSDSVKGRFTISRDNSKNTLYLQMNSLRAEDTAVYYCAASNKLYGRTWYDFNESDYWGQGTQVTVSS
notes: VHH in uTCE with CD3.23 scFv (VL-VH), 9-residue linker; also called PSMA.132; R101K
Human PSMA-Fc [2]
  Kd: 5.6 nM
Human PSMA-Fc [4]
  Kd: 5.6 nM
  koff: 0.000479 s⁻¹
  kon: 86600 M⁻¹ s⁻¹

B4: CB01A01R3 (VHH)
VHH: EVQLVESGGGLVQAGGSLRISCTASERSVSTYTKGWFRQAPGKERHLVAAISYNGDTTYYSDSVKGRFTISRDNVKNTVNLQMNSLKPEDTAVYFCAARGSSWLYGTWDDYHYWGQGTQVTVSS
[5]
  binding result: binds

B5: P01E02R3 (VHH)
VHH: EVQLVESGGGLVQAGGSLKLSCVANGPTFSTYAMAWFRQAPGKEHEFVAAITGDGDTTNNADSVKGRFTISRDNAKNRVYLQLNSLKPEDTAAYYCAAGVHHTYTIPRLWLYWGQGTQVTVSS
[5]
  binding result: binds

B6: CB01B02R3 (VHH)
VHH: QVQLVESGGGLVQAGDSLRLSCVTSGRTFDVYAMGWFRQAPGKERELVAAINWSGSNKFHADSVKGRFTISRDNAWKTLSLQMNSLKPEDTAVYFCAASTRLYGTTWYEFNDSDYWGQGTQVTVSS
notes: also called PSMA.3
[5]
  binding result: binds

B7: P01G03R3 (VHH)
VHH: EVQLVESGGGLVQAGGSLRLSCVVSGIAFSPYHMAWYRQAPGKQHEWVAVITTGGTTAYNETVEGRFSISRDNARSTVYLQMNSLKPEDTAVYYCNIYGLSLKWGQGTQVTVSS
[5]
  binding result: binds

B8: uTCE of AC3354 (bispecific antibody)
chain: LTGPATSGSETPGTQVQLVESGGGVVQPGRSLRLSCAASGRTFGIYVMGWVRQAPGKEREFVAAISWSGSNRLVSDSVKGRFTISRDNSKNTLYLQMNSLRAEDTAVYYCAASNRLYGRTWYDFNESDYWGQGTQVTVSSGATPPETGAETESPGELVVTQEPSLTVSPGGTVTLTCRSSNGAVTSSNYANWVQQKPGQAPRGLIGGTNKRAPGTPARFSGSLLGGKAALTLSGVQPEDEAVYYCALWYPNLWVFGGGTKLTVLGATPPETGAETESPGETTGGSAESEPPGEGEVQLLESGGGIVQPGGSLKLSCAASGFTFNTYAMNWVRQAPGKGLEWVARIRSKYNNYATYYADSVKDRFTISRDDSKNTVYLQMNNLKTEDTAVYYCVRHENFGNSYVSWFAHWGQGTLVTVSSGTAEAASASGEAGRSANHTPAG
notes: unmasked TCE of this paTCE; 15-residue VHH-scFv linker; also called PSMA.5 (15 mer)
Human PSMA-Fc [2]
  Kd: 3.5 nM
Human PSMA-Fc [3]
  Kd: 3.5 nM
  koff: 0.00027 s⁻¹
  kon: 77000 M⁻¹ s⁻¹

B9: P01C01R3 (VHH)
VHH: QVQLVESGGGLVQAGGSLRLSCAASGRTVNSYAMGWFRQAPGKEREFVASQSWMGAITYDADYADSVKGRFTISRDNAKNTLYLQMNSLKPEDTAVYRCAASRQARPGLHVREYDVWGQGTQVTVSS
[5]
  binding result: binds

B10: uTCE of AC3353 (bispecific antibody)
chain: LTGPATSGSETPGTQVQLVESGGGVVQPGRSLRLSCAASGRTFGIYVMGWVRQAPGKEREFVAAISWSGSNRLVSDSVKGRFTISRDNSKNTLYLQMNSLRAEDTAVYYCAASNRLYGRTWYDFNESDYWGQGTQVTVSSGGGGSELVVTQEPSLTVSPGGTVTLTCRSSNGAVTSSNYANWVQQKPGQAPRGLIGGTNKRAPGTPARFSGSLLGGKAALTLSGVQPEDEAVYYCALWYPNLWVFGGGTKLTVLGATPPETGAETESPGETTGGSAESEPPGEGEVQLLESGGGIVQPGGSLKLSCAASGFTFNTYAMNWVRQAPGKGLEWVARIRSKYNNYATYYADSVKDRFTISRDDSKNTVYLQMNNLKTEDTAVYYCVRHENFGNSYVSWFAHWGQGTLVTVSSGTAEAASASGEAGRSANHTPAG
notes: unmasked TCE of this paTCE; 5-residue VHH-scFv linker; also called PSMA.5 (5 mer)
Human PSMA-Fc [2]
  Kd: 2.1 nM
Human PSMA-Fc [3]
  Kd: 2.1 nM
  koff: 0.00022 s⁻¹
  kon: 110000 M⁻¹ s⁻¹

B11: CB01H01R3 (VHH)
VHH: EVQLVESGGGSVQAGGSLSLSCVASGRTFGIYVMGWFRQAPGKEREFVAAISWSGSNRLVSDSVKGRFTISRENAKNTIYLQMNGLKPEDTANYFCAASNRLYGRTWYDFNESDYWGQGTQVTVSS
notes: also called PSMA.2
[5]
  binding result: binds
